Source: patent publication US6890738

Target: prolactin receptor on Nb2 T lymphoma cells (rat) (UniProt P05710)
Experiment: cell-based or functional assay

UniProt P05710, sequence (P05710 20-610): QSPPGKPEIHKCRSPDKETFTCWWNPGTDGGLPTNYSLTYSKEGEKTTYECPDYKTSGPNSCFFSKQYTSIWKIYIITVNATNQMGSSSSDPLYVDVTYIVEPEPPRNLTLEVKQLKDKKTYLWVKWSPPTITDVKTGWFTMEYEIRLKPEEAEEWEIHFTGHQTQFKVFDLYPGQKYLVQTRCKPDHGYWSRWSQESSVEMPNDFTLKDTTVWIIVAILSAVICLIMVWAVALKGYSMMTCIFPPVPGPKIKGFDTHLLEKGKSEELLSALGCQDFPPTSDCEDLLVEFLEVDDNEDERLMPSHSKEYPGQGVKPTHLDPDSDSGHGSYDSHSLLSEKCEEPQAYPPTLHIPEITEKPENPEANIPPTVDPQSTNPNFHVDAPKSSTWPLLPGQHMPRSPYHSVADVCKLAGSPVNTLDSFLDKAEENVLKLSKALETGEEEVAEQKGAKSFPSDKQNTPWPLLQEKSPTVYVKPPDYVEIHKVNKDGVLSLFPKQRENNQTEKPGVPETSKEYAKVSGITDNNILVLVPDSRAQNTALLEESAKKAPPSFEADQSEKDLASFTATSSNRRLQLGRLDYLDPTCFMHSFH

Substance	inhibition of the Nb2 cell growth response to 400 pg/ml wild-type PRL by 200 pg/ml aspartate mutant (MTS assay)	reduction of the Nb2 cell growth response to 800 pg/ml wild-type PRL by 200 pg/ml glutamate mutant (MTS assay) (fraction of growth response)
human prolactin aspartate mutant (serine 179 substituted with aspartate) (from UniProt P01236 29-227) (ligand)	75%	
human prolactin glutamate mutant (serine 179 substituted with glutamate) (from UniProt P01236 29-227) (ligand)		0.5
